Data as given in US20250276082A1 (INNOLAKE BIOPHARMA HANGZHOU, published 2025).

T1: Human B7H3 extracellular domain and mFc fusion protein (B7H3-ECD-mFc) (human, UniProt Q5ZPR3 29-466)
T1 construct: extracellular domain; also called B7H3-mFc; B7H3-mFc Protein; not shown: mouse Fc (mFc)
T1 sequence (looked up): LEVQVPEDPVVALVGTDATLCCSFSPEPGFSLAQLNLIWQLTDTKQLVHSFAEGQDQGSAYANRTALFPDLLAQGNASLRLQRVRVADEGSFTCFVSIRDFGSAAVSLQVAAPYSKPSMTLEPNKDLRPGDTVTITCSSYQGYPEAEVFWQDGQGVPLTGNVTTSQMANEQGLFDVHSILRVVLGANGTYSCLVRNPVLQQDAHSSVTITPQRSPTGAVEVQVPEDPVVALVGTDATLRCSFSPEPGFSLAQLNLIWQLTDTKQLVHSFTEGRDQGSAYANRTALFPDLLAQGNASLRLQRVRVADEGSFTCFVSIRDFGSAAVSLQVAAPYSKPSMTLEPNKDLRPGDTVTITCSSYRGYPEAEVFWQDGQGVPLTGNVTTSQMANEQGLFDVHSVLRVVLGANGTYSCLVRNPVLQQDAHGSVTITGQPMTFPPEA

T2: B7H3 on the cell surface (PC9 cells; 293T-B7H3 cells) (UniProt Q5ZPR3 29-534, limits assumed)
T2 construct: whole, on cells; both carry B7H3 on the surface; also called Cell Surface B7H3; B7H3 protein in PC9 cells
T2 sequence (looked up): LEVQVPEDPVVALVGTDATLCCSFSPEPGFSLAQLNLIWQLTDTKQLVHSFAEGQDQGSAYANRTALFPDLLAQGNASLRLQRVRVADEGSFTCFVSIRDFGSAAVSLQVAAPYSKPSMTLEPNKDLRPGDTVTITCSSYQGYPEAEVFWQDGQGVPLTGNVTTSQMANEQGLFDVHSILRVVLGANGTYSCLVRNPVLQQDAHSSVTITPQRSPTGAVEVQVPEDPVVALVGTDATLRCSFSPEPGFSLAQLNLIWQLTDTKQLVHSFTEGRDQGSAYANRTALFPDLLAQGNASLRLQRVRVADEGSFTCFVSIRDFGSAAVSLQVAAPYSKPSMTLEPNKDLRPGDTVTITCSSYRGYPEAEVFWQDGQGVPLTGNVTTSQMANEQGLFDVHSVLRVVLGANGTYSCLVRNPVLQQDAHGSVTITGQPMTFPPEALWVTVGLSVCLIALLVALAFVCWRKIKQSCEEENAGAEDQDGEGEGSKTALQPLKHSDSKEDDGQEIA


Legend:
[1] = molecular target: T1, Human B7H3 extracellular domain and mFc …; assay: ELISA, B7H3-mFc protein (table title), humanized IgG1
[2] = molecular target: T2, B7H3 on the cell surface (PC9 cells; …); assay: FACS, cell surface B7H3 (PC9 cells per FIG. 10)

Binder	EC50 [1]	EC50 [2]
hu4F11 (antibody, IgG1, V domains shown, expressed in 293 cells; also called humanized antibody 4F11; humanized 4F11) VH: QVQLVQSGAEVKKPGASVKVSCKTSGYTFTEYIMHWVRQAPGQGLEWIGGINPNTGGITYNQKFKDRATLTVDKSISTAYMELSRLRSDDTAVYYCARAGGNFLWYFDVWGQGTMVTVSS VL: EIVLTQSPATLSLSPGERATLSCSASSSVSYMHWYQQKPGQAPRRWLYDTSKLASGIPARFSGSGSGTDYTLTISSLEPEDFAVYYCQQWNSNPLTFGQGTKLEIK	0.0406 µg/mL	0.127 µg/mL
hu9C8 (antibody, IgG1, V domains shown, expressed in 293 cells; also called humanized antibody 9C8; humanized 9C8) VH: QVQLVQSGAEVKKPGASVKVSCKASGYTFTEYTIHWVRQAPGQGLEWIGGINPNSGGTTYNLKFKGRATLTVDKSTSTVYMELSSLRSEDTAVYYCARKEGFFTTDYWGQGTLVTVSS VL: ETVLTQSPATLSLSPGERATLSCSASSSLSYIHWYQQKPGQAPRRWIYDTSNLATGIPARFSGSGSGTDYTLTISSLEPEDFAVYYCQQWHYNPPTFGGGTKVEIK	0.0199 µg/mL	0.079 µg/mL
hu7B7 (antibody, IgG1, V domains shown, expressed in 293 cells; also called humanized antibody 7B7) VH: EVQLVESGGGLVKPGGSLRLSCAASGFTFSSYAVSWVRQAPGKGLEWVASISGGGIYIYYPDSVKGRFTISRDNAKNSLYLQMNSLRAEDTAVYYCARHGGAGYFDYWGQGTLVTVSS VL: DSQMTQSPSSLSASVGDRVTITCRGSESVHSYLAWYQQKPGKAPKLLVYNAKTLQSGVPSRFSGSGSGTDFTLTISSLQPEDFATYYCQQHYGSPPWTFGGGTKVEIK	0.00635 µg/mL	0.0113 µg/mL
hu15A2 (antibody, IgG1, V domains shown, expressed in 293 cells; also called humanized antibody 15A2) VH: QVQLVQSGAEVKKPGASVKVSCKASGYTFTSYDINWVRQATGQGLEWIGWIDPGDGSTKYNEKFKGRATLTANKSISTAYMELSSLRSEDTAVYYCVRRGFDYWGQGTLVTVSS VL: EIVLTQSPATLSLSPGERATLSCRTSSSVSYLHWFQQKPGQAPRLWIHDTSNLASGFPARFSGSGSGTDYTLTISSLEPEDFAVYYCHQRSSYPWTFGGGTKVEIK	0.00384 µg/mL	0.0143 µg/mL

Continued, values first:

EC50 [1]	EC50 [2]	Binder
0.0127 µg/mL	0.0621 µg/mL	hu5B6 (antibody, IgG1, V domains shown, expressed in 293 cells; also called humanized antibody 5B6; humanized 5B6) VH: QVQLVQSGAEVKKPGSSVKVSCKASGYTFITYTIHWVRQAPGQGLEWIGYINPTSDYANFNQKFKDRATLTADKSTSTAYMELSSLRSEDTAVYYCARWGTTVFQFYFDYWGQGTLVTVSS VL: EIVLTQSPATLSLSPGERATLSCRASQSLSYINWYQQKPGKAPKPWIYATSSLQSGVPSRFSGSASGTDYTLTISSLQPEDFATYYCQHWSSDPPTIGGGTKVEIK
0.0175 µg/mL	0.14 µg/mL	hu2A9 (antibody, IgG1, V domains shown, expressed in 293 cells; also called humanized antibody 2A9; humanized 2A9) VH: QVQLVQSGAEVKKPGASVKVSCKTSGYTFTEYIMHWVRQAPGQGLEWIGGINPNSGGTTYNEKFKGRATLTVDKSISTAYMELSRLRSDDTAVYYCARRMPYWYFDVWGQGTMVTVSS VL: EIVLTQSPATLSLSPGERATLSCSASSSVSYIHWYQQKPGQAPRRWVYDTSKLASGIPARFSGSGSGTDYTLTISSLEPEDFAVYYCQQWVSNPLTFGQGTKLEIK
